The values below come from PMC2882879 (Biochemistry, 2010).

One may read the Kd as a measure of binding affinity in units of concentration.

Assay [1] has as its target LRP6 (Homo sapiens) (UniProt O75581). As to the kind of experiment: solid phase enzyme-linked binding assay. The following applies: cited from earlier work.
Assay [2] deals with human low-density lipoprotein receptor-related protein-5 on stably transfected ldl-7 (LDLR-deficient CHO) … (human, UniProt O75197 32-1615). As to the kind of experiment: radioligand binding.
Sequence of human low-density lipoprotein receptor-related protein-5 on stably transfected ldl-7 (LDLR-deficient CHO) … (O75197 32-1615): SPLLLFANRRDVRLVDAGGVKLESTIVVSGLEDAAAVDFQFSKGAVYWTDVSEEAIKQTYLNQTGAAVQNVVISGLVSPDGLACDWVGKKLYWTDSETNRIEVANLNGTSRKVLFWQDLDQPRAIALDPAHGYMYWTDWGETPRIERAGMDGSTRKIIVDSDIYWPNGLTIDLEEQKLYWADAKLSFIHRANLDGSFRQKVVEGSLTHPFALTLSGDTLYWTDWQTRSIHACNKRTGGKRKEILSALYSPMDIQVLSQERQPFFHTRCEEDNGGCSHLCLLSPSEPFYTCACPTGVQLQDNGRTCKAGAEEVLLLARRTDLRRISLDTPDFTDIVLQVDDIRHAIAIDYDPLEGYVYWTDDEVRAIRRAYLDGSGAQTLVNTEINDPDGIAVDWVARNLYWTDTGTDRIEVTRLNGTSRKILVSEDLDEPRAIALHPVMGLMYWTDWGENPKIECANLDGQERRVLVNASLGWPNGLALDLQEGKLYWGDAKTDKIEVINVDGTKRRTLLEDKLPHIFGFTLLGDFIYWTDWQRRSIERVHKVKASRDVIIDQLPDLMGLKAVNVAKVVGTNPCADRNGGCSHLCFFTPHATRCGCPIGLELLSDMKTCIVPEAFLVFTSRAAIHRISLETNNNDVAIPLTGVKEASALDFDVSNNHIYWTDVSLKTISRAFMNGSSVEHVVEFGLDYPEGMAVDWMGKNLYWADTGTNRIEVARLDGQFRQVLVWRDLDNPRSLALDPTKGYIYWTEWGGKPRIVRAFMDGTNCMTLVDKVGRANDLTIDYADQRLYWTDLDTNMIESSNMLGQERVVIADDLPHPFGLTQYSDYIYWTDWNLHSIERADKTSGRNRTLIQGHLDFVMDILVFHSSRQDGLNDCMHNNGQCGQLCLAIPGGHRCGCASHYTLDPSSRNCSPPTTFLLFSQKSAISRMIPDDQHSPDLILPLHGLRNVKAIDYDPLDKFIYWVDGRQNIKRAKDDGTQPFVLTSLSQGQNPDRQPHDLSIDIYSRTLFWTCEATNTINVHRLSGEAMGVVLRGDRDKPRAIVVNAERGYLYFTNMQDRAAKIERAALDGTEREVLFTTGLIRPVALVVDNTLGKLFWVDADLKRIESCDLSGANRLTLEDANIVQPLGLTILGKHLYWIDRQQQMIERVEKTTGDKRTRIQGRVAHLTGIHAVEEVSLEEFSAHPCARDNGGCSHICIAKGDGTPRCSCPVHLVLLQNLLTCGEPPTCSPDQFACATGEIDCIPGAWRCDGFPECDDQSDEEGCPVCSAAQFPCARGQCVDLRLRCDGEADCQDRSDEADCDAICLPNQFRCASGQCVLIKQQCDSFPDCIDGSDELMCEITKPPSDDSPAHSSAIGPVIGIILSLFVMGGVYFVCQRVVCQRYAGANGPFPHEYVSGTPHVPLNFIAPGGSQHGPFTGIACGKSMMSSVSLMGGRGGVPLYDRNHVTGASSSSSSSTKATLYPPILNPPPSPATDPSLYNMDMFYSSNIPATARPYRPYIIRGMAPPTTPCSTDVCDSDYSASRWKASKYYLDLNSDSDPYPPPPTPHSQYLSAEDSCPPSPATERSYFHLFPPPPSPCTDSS

Sequence of LRP6 (Homo sapiens) (O75581 20-1370): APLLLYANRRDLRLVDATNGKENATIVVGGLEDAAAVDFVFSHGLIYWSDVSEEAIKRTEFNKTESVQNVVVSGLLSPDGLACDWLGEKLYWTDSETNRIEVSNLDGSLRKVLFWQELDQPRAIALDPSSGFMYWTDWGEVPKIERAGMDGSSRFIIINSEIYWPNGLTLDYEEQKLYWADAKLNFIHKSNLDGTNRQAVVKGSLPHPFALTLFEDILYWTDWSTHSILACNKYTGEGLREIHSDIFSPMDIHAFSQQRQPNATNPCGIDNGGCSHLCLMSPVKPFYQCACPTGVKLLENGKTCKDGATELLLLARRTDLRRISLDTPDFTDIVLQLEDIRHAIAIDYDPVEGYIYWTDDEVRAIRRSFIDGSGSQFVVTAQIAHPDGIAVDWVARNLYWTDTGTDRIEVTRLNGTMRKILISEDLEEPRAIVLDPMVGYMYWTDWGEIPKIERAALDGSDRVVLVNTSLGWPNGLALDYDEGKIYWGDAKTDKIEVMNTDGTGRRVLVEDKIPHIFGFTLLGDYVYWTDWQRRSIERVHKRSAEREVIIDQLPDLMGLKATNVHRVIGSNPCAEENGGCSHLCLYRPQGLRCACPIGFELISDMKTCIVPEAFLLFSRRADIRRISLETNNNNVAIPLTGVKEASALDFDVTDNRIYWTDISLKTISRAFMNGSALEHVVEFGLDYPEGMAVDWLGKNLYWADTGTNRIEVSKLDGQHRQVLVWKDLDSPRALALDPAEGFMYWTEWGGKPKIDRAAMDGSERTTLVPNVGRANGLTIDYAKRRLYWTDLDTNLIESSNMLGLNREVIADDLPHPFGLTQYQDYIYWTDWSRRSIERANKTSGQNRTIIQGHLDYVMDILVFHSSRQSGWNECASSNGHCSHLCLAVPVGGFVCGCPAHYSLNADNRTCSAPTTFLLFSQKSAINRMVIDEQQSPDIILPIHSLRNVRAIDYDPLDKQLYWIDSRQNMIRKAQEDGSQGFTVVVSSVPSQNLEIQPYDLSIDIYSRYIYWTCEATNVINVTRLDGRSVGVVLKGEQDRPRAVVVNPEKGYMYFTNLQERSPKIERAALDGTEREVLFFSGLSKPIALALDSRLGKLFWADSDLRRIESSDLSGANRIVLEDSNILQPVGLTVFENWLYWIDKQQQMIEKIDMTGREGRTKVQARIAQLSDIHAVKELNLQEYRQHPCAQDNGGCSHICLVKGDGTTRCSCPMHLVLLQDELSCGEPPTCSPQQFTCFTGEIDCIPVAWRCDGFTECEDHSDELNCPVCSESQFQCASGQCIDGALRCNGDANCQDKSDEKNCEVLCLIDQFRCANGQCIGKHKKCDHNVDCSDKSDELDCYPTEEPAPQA

On to Rspo1 (from UniProt Q2MKA7), for which the Kd in assay [1] was 1.2 nM.

B1: recombinant mouse Mesd protein (natural protein, UniProt Q9ERE7 30-224, looked up)
chain: ADTPGEATPPPRKKKDIRDYNDADMARLLEQWEKDDDIEEGDLPEHKRPSAPIDFSKLDPGKPESILKMTKKGKTLMMFVTVSGNPTEKETEEITSLWQGSLFNANYDVQRFIVGSDRAIFMLRDGSYAWEIKDFLVSQDRCAEVTLEGQMYPGKGGGSKEKNKTKPEKAKKKEGDPKPRASKEDNRAGSRREDL
modifications: 125I-iodinated (IODO-GEN method) where used as radioligand; unlabelled where used as competitor
For the molecule B1, binding in assay [2] was put at a Kd of 3.3 nM.
